Test results as given in patent US20260242735A1 (UNIVERSIT T BASEL, published 2026).
Values belong to the binder of their own block, whether it stands above or below them.

Experiments:
human CD33 G220A = human CD33 G220A (human, UniProt P20138 18-364); assay: alanine scan, flow cytometry, HEK293-T;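 further: antibody binding to each alanine-substituted CD33 mutant expressed transiently in HEK293-T, read as fluorescence minus background, mean of duplicates, relative to wild-type CD33 set as 100%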
human CD33 V214A = human CD33 V214A (human, UniProt P20138 18-364); assay: alanine scan, flow cytometry, HEK293-T;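 further: antibody binding to each alanine-substituted CD33 mutant expressed transiently in HEK293-T, read as fluorescence minus background, mean of duplicates, relative to wild-type CD33 set as 100%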
Chain of human CD33 V214A (P20138 18-364 V214A limits assumed): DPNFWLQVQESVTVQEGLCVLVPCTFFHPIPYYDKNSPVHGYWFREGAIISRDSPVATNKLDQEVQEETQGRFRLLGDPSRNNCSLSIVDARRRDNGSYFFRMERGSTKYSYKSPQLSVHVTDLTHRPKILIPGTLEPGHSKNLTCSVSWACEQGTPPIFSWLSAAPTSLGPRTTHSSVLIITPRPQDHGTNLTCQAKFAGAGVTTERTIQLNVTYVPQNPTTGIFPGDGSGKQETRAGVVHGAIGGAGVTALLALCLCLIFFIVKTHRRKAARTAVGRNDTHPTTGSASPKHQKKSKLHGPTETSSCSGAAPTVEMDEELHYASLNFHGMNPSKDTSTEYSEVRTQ

human CD33 T185A = human CD33 T185A (human, UniProt P20138 18-364); assay: alanine scan, flow cytometry, HEK293-T;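 further: antibody binding to each alanine-substituted CD33 mutant expressed transiently in HEK293-T, read as fluorescence minus background, mean of duplicates, relative to wild-type CD33 set as 100%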
Chain of human CD33 T185A (P20138 18-364 T185A limits assumed): as the sequence (P20138 18-364 V214A limits assumed) above, with T168A, A197V counted along it

human CD33 R254A = human CD33 R254A (human, UniProt P20138 18-364); assay: alanine scan, flow cytometry, HEK293-T;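 further: antibody binding to each alanine-substituted CD33 mutant expressed transiently in HEK293-T, read as fluorescence minus background, mean of duplicates, relative to wild-type CD33 set as 100%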
Chain of human CD33 R254A (P20138 18-364 R254A limits assumed): as the sequence (P20138 18-364 V214A limits assumed) above, with A197V, R237A counted along it

human CD33 L273A = human CD33 L273A (human, UniProt P20138 18-364); assay: alanine scan, flow cytometry, HEK293-T
Chain of human CD33 L273A (P20138 18-364 L273A limits assumed): as the sequence (P20138 18-364 V214A limits assumed) above, with A197V, L256A counted along it

human CD33 G249A = human CD33 G249A (human, UniProt P20138 18-364); assay: alanine scan, flow cytometry, HEK293-T
Chain of human CD33 G249A (P20138 18-364 G249A limits assumed): as the sequence (P20138 18-364 V214A limits assumed) above, with A197V, G232A counted along it

human CD33 G256A = human CD33 G256A (human, UniProt P20138 18-364); assay: alanine scan, flow cytometry, HEK293-T
Chain of human CD33 G256A (P20138 18-364 G256A limits assumed): as the sequence (P20138 18-364 V214A limits assumed) above, with A197V, G239A counted along it

human CD33 S248A = human CD33 S248A (human, UniProt P20138 18-364); assay: alanine scan, flow cytometry, HEK293-T
Chain of human CD33 S248A (P20138 18-364 S248A limits assumed): as the sequence (P20138 18-364 V214A limits assumed) above, with A197V, S231A counted along it

human CD33 G304A = human CD33 G304A (human, UniProt P20138 18-364); assay: alanine scan, flow cytometry, HEK293-T
Chain of human CD33 G304A (P20138 18-364 G304A limits assumed): as the sequence (P20138 18-364 V214A limits assumed) above, with A197V, G287A counted along it

[1] = target: human CD33 extracellular region W22E (human, UniProt P20138 18-259); assay: BLI Octet, IgG captured on AHC, CD33 analyte;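 further: CD33 variants and wild type run as analyte at 5, 50 and 500 nM, 700 s association then 1200 s dissociation, buffer-only reference subtracted, global 1:1 fit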
[2] = target: human CD33 extracellular region W22R (human, UniProt P20138 18-259); assay: BLI Octet, IgG captured on AHC, CD33 analyte;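 further: CD33 variants and wild type run as analyte at 5, 50 and 500 nM, 700 s association then 1200 s dissociation, buffer-only reference subtracted, global 1:1 fit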
[3] = target: human CD33 extracellular region F21H (human, UniProt P20138 22-259); assay: BLI Octet, IgG captured on AHC, CD33 analyte;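 further: CD33 variants and wild type run as analyte at 5, 50 and 500 nM, 700 s association then 1200 s dissociation, buffer-only reference subtracted, global 1:1 fit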
[4] = target: human CD33 extracellular region F21S_W22R (human, UniProt P20138 23-259); assay: BLI Octet, IgG captured on AHC, CD33 analyte;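 further: CD33 variants and wild type run as analyte at 5, 50 and 500 nM, 700 s association then 1200 s dissociation, buffer-only reference subtracted, global 1:1 fit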
[5] = target: human CD33 extracellular region N20E (human, UniProt P20138 21-259); assay: BLI Octet, IgG captured on AHC, CD33 analyte
[6] = target: human CD33 extracellular region F21V (human, UniProt P20138 22-259); assay: BLI Octet, IgG captured on AHC, CD33 analyte
[7] = target: human CD33 extracellular region P48F (human, UniProt P20138 18-259); assay: BLI Octet, IgG captured on AHC, CD33 analyte
[8] = target: human CD33 extracellular region F21I (human, UniProt P20138 22-259); assay: BLI Octet, IgG captured on AHC, CD33 analyte
[9] = target: human CD33 extracellular region Y50H (human, UniProt P20138 18-259); assay: BLI Octet, IgG captured on AHC, CD33 analyte
Chain of human CD33 extracellular region Y50H (P20138 other isoform, or with tags, fused parts or gaps Y50H Y50H): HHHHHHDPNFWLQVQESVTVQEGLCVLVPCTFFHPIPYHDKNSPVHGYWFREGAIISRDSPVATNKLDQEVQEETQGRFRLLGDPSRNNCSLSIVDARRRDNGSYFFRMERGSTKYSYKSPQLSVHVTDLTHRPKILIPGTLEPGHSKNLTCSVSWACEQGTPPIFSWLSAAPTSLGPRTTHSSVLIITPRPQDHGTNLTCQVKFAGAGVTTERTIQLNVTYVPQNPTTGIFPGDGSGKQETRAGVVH

[10] = target: human CD33 extracellular region Y50H_Y49H (human, UniProt P20138 18-259); assay: BLI Octet, IgG captured on AHC, CD33 analyte
[11] = target: human CD33 extracellular region N20S (human, UniProt P20138 21-259); assay: BLI Octet, IgG captured on AHC, CD33 analyte
[12] = target: human CD33 extracellular region N100Q (human, UniProt P20138 18-259); assay: BLI Octet, IgG captured on AHC, CD33 analyte
[13] = target: T1, human CD33 extracellular region, wild type (human, UniProt P20138 18-259); assay: BLI Octet, IgG captured on AHC, CD33 analyte
T1 construct: also called WT; CD33 wt
T1 sequence (P20138 other isoform, or with tags, fused parts or gaps): as the sequence (P20138 other isoform, or with tags, fused parts or gaps Y50H Y50H) above, with H39Y counted along it

[14] = target: human CD33 extracellular region F43S (human, UniProt P20138 18-259); assay: BLI Octet, IgG captured on AHC, CD33 analyte
[15] = target: human CD33 extracellular region F21M (human, UniProt P20138 22-259); assay: BLI Octet, IgG captured on AHC, CD33 analyte
[16] = target: human CD33 extracellular region N20K (human, UniProt P20138 21-259); assay: BLI Octet, IgG captured on AHC, CD33 analyte
Chain of human CD33 extracellular region N20K (P20138 other isoform, or with tags, fused parts or gaps N20K N20K): as the sequence (P20138 other isoform, or with tags, fused parts or gaps Y50H Y50H) above, with N9K, H39Y counted along it

[17] = target: human CD33 extracellular region Q24R (human, UniProt P20138 18-259); assay: BLI Octet, IgG captured on AHC, CD33 analyte
[18] = target: human CD33 extracellular region Y50S (human, UniProt P20138 18-259); assay: BLI Octet, IgG captured on AHC, CD33 analyte
Chain of human CD33 extracellular region Y50S (P20138 other isoform, or with tags, fused parts or gaps Y50S Y50S): as the sequence (P20138 other isoform, or with tags, fused parts or gaps Y50H Y50H) above, with H39S counted along it

[19] = target: human CD33 extracellular region H45Y (human, UniProt P20138 18-259); assay: BLI Octet, IgG captured on AHC, CD33 analyte
[20] = target: human CD33 extracellular region W22T (human, UniProt P20138 18-259); assay: BLI Octet, IgG captured on AHC, CD33 analyte
[21] = target: human CD33 extracellular region F44S (human, UniProt P20138 18-259); assay: BLI Octet, IgG captured on AHC, CD33 analyte
[22] = target: human CD33 extracellular region N20H (human, UniProt P20138 21-259); assay: BLI Octet, IgG captured on AHC, CD33 analyte
Chain of human CD33 extracellular region N20H (P20138 other isoform, or with tags, fused parts or gaps N20H N20H): as the sequence (P20138 other isoform, or with tags, fused parts or gaps Y50H Y50H) above, with N9H, H39Y counted along it

[23] = target: human CD33 extracellular region W22K (human, UniProt P20138 18-259); assay: BLI Octet, IgG captured on AHC, CD33 analyte
Chain of human CD33 extracellular region W22K (P20138 other isoform, or with tags, fused parts or gaps W22K W22K): as the sequence (P20138 other isoform, or with tags, fused parts or gaps Y50H Y50H) above, with W11K, H39Y counted along it

Chain of human CD33 G220A (P20138 18-364 G220A limits assumed): as the sequence (P20138 18-364 V214A limits assumed) above, with A197V, G203A counted along it

Mean % WT Binding (human CD33 G220A): 115% | Mean % WT Binding (human CD33 V214A): 101% | Mean % WT Binding (human CD33 T185A): 98.9%
B3: Refmab #4 (antibody, V domains shown)
VH: QVQLVQSGAEVKKPGESVKVSCKASGYTFTNYGMNWVKQAPGQGLEWMGWINTYTGEPTYADKFQGRVTMTTDTSTSTAYMEIRNLGGDDTAVYYCARWSWSDGYYVYFDYWGQGTSVTVSS
VL: DIVMTQSPDSLTVSLGERTTINCKSSQSVLDSSTNKNSLAWYQQKPGQPPKLLLSWASTRESGIPDRFSGSGSGTDFTLTIDSPQPEDSATYYCQQSAHFPITFGQGTRLEIK
notes: In the alanine scan antibodies were used as IgG or Fab

Mean % WT Binding (human CD33 R254A): 101 % WT binding | Mean % WT Binding (human CD33 L273A): 115 % WT binding | Mean % WT Binding (human CD33 G249A): 111 % WT binding | Mean % WT Binding (human CD33 G256A): 104 % WT binding | Mean % WT Binding (human CD33 S248A): 99.7 % WT binding | Mean % WT Binding (human CD33 G304A): 95 % WT binding
B4: Refmab #4 (antibody, V domains shown)
VH: B3 VH
VL: B3 VL
notes: The alanine scan used IgG or Fab

Mean % WT Binding (human CD33 G220A): 114% | Mean % WT Binding (human CD33 V214A): 102% | Mean % WT Binding (human CD33 T185A): 105%
B5: Refmab #3 (antibody, V domains shown)
VH: QVQLVQSGAEVKKPGSSVKVSCKASGYTFTDYNMHWVRQAPGQGLEWIGYIYPYNGGTGYNQKFKSKATITADESTNTAYMELSSLRSEDTAVYYCARGRPAMDYWGQGTLVTVSS
VL: DIQMTQSPSSLSASVGDRVTITCRASESVDNYGISFMNWFQQKPGKAPKLLIYAASNQGSGVPSRFSGSGSGTDFTLTISSLQPDDFATYYCQQSKEVPWTFGQGTKVEIK
notes: as for B3

Mean % WT Binding (human CD33 R254A): 88.4 % WT binding | Mean % WT Binding (human CD33 L273A): 125 % WT binding | Mean % WT Binding (human CD33 G249A): 132 % WT binding | Mean % WT Binding (human CD33 G256A): 94.9 % WT binding | Mean % WT Binding (human CD33 S248A): 133 % WT binding | Mean % WT Binding (human CD33 G304A): 121 % WT binding
B6: Refmab #3 (antibody, V domains shown)
VH: B5 VH
VL: B5 VL
notes: as for B4

Continued, binder first:

B1: Refmab #2 (antibody, V domains shown)
VH: QVQLVQSGAEVKKPGSSVKVSCKASGGTFSDYAISWVRQAPGQGLEWMGRIIPILGVADYAQKFQGRVTITADKSTRTAYMELSSLRSEDTAVYYCARNWADAFDIWGQGTMVTVSS
VL: DIQLTQSPSSLSASVGDRVTITCRASQGISSVLAWYQQKPGKAPKLLIYDASSLESGVPSRFSGSGSGTDFTLTISSLQPEDFATYYCQQFDSSITFGQGTKLEIK
notes: as for B3
Mean % WT Binding (human CD33 G220A): 132% | Mean % WT Binding (human CD33 V214A): 118% | Mean % WT Binding (human CD33 T185A): 118%

B2: Refmab #2 (antibody, V domains shown)
VH: B1 VH
VL: B1 VL
notes: as for B4
Mean % WT Binding (human CD33 R254A): 118 % WT binding | Mean % WT Binding (human CD33 L273A): 117 % WT binding | Mean % WT Binding (human CD33 G249A): 127 % WT binding | Mean % WT Binding (human CD33 G256A): 117 % WT binding | Mean % WT Binding (human CD33 S248A): 93.6 % WT binding | Mean % WT Binding (human CD33 G304A): 111 % WT binding

B7: Refmab #1 (antibody, V domains shown)
VH: EVQLVQSGAEVKKPGSSVKVSCKASGYTITDSNIHWVRQAPGQSLEWIGYIYPYNGGTDYNQKFKNRATLTVDNPTNTAYMELSSLRSEDTAFYYCVNGNPWLAYWGQGTLVTVSS
VL: DIQLTQSPSTLSASVGDRVTITCRASESLDNYGIRFLTWFQQKPGKAPKLLMYAASNQGSGVPSRFSGSGSGTEFTLTISSLQPDDFATYYCQQTKEVPWSFGQGTKVEVK
notes: In the alanine scan antibodies were used as IgG or Fab; also called hP67.6
Mean % WT Binding (human CD33 G220A): 104% | Mean % WT Binding (human CD33 V214A): 80.5% | Mean % WT Binding (human CD33 T185A): 92.3%

B8: Refmab #1 (antibody, V domains shown)
VH: B7 VH
VL: B7 VL
notes: The alanine scan used IgG or Fab; also called hP67.6
Mean % WT Binding (human CD33 R254A): 101 % WT binding | Mean % WT Binding (human CD33 L273A): 110 % WT binding | Mean % WT Binding (human CD33 G249A): 89.2 % WT binding | Mean % WT Binding (human CD33 G256A): 89.8 % WT binding | Mean % WT Binding (human CD33 S248A): 88.4 % WT binding | Mean % WT Binding (human CD33 G304A): 104 % WT binding

B9: Refmab #1 (antibody, human IgG1, V domains shown)
VH: B7 VH
VL: B7 VL
notes: also called hP67.6; Absolute Antibody Cat. No. Ab00283-10.0
% WT binding [1]: 26.4% | % WT binding [2]: 26.4% | % WT binding [3]: 0% | % WT binding [4]: 0% | % WT binding [5]: 3.46% | % WT binding [6]: 0% | % WT binding [7]: 76.2% | % WT binding [8]: 0% | % WT binding [9]: 104% | % WT binding [10]: 76.4% | % WT binding [11]: 37.8% | % WT binding [12]: 107% | % WT binding [13]: 100% | % WT binding [14]: 104% | % WT binding [15]: 0% | % WT binding [16]: 0% | % WT binding [17]: 67.9% | % WT binding [18]: 75.5% | % WT binding [19]: 55% | % WT binding [20]: 15% | % WT binding [21]: 63.9% | % WT binding [22]: 67% | % WT binding [23]: 0%
